Blank lines part the entries; values can stand above or below the binder they belong to.
Assays:
Experiment in all cases: cell-based or functional assay
[1] = target: T1, ADAMTS4 (human, UniProt O75173 213-685, limits assumed)
T1 sequence (looked up): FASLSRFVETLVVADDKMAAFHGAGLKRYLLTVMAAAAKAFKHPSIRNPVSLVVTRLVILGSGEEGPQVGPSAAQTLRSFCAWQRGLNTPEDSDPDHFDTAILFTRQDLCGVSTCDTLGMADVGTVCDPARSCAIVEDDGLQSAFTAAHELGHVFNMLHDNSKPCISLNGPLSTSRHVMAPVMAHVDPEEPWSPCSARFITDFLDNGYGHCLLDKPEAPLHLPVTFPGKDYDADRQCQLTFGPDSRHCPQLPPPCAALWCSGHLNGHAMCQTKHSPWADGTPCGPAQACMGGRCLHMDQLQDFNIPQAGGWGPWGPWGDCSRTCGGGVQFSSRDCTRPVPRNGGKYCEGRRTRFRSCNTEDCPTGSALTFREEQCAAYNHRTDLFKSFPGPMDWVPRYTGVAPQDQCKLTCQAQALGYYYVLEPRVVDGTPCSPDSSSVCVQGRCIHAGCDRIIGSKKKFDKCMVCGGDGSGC

[2] = target: T2, ADAMTS5 (human, UniProt Q9UNA0 262-622, limits assumed)
T2 sequence (looked up): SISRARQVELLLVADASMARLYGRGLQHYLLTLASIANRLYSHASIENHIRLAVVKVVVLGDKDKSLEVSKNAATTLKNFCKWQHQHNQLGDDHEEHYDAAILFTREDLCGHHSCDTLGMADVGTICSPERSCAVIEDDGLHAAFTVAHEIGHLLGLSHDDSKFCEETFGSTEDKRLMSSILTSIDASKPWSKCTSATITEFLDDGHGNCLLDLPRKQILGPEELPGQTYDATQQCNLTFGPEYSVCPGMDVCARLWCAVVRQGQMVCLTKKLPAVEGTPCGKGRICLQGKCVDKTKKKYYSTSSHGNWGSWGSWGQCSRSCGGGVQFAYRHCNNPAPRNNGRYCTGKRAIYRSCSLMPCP

[3] = target: T3, MMP1 (human, UniProt P03956 100-469, limits assumed)
T3 sequence (looked up): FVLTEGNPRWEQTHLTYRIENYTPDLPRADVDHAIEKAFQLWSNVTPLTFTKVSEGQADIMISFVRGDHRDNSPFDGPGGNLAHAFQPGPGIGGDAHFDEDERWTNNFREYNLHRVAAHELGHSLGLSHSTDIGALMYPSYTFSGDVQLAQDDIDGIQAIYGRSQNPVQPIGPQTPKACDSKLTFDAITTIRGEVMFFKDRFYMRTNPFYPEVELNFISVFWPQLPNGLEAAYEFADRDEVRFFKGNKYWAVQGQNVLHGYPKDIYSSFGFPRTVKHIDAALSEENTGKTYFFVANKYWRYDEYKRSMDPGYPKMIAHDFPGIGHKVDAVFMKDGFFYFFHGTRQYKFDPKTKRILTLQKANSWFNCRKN

[4] = target: MMP8 (human, UniProt P22894 101-467, limits assumed)
Sequence of MMP8 (P22894 101-467 limits assumed): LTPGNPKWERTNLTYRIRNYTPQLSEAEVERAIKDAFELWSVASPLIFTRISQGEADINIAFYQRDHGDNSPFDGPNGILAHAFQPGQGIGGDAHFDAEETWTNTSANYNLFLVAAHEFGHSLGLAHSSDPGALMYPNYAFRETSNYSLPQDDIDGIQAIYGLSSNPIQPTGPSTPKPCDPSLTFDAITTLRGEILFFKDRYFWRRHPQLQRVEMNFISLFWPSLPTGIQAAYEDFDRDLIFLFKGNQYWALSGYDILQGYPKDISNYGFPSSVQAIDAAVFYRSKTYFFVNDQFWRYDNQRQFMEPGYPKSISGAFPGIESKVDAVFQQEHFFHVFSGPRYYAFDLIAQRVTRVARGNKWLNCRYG

[5] = target: MMP13 (human, UniProt P45452 104-471, limits assumed)
[6] = target: T4, MMP2 (human, UniProt P08253 110-660, limits assumed)
T4 sequence (looked up): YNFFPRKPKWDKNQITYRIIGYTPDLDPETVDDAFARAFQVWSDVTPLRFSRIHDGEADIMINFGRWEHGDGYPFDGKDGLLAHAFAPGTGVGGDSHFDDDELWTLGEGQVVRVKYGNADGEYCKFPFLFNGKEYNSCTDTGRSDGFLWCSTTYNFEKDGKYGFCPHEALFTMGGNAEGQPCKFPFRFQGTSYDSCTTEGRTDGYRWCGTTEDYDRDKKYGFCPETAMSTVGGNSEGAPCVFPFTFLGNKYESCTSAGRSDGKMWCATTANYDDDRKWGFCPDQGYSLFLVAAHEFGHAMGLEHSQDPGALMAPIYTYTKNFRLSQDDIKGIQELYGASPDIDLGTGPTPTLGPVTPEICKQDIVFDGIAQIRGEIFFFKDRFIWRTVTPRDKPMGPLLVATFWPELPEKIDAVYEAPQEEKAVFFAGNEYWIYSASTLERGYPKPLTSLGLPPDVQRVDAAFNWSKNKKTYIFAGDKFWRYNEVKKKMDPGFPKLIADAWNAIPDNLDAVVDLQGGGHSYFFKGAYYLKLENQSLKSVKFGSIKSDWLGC

[7] = target: MMP9 (human, UniProt P14780 107-707, limits assumed)
Sequence of MMP9 (P14780 107-707 limits assumed): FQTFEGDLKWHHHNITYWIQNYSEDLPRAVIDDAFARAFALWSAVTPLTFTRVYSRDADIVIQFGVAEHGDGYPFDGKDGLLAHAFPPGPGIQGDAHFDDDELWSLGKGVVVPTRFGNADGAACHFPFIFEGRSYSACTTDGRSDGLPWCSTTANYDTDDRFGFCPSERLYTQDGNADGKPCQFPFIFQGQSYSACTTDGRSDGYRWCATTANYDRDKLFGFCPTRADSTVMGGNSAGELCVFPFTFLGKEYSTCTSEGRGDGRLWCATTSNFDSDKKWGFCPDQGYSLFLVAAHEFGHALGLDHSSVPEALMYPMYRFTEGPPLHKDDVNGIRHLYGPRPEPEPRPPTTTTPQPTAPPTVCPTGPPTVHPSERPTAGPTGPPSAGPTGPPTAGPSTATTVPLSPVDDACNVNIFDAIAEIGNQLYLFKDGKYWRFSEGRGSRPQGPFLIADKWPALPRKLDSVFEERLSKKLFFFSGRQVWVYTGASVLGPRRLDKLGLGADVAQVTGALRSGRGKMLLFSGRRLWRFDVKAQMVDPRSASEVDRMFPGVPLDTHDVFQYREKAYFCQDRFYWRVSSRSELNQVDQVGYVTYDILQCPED

[8] = target: MMP3 (human, UniProt P08254 100-477, limits assumed)
Sequence of MMP3 (P08254 100-477 limits assumed): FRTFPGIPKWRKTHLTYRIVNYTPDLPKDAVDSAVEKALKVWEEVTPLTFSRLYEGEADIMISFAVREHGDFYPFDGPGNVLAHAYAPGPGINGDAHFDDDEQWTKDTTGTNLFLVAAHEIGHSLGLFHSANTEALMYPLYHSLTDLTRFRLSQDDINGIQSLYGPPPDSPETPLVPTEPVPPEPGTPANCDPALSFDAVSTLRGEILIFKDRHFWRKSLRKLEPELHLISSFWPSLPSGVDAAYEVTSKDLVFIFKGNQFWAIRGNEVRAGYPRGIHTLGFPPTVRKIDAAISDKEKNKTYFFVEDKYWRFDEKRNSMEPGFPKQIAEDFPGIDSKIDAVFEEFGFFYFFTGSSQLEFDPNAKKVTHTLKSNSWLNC

[9] = target: Elastase
[10] = target: T5, Cathepsin G (UniProt P08311 21-244)
T5 sequence (looked up): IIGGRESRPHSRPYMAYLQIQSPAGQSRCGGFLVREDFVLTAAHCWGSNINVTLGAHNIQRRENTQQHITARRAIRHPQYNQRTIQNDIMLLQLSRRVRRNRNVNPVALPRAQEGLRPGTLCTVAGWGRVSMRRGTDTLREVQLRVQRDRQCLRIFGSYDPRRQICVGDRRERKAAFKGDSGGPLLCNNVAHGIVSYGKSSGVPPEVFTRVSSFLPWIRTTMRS

[11] = target: T6, MMP7 (UniProt P09237 95-267, limits assumed)
T6 sequence (looked up): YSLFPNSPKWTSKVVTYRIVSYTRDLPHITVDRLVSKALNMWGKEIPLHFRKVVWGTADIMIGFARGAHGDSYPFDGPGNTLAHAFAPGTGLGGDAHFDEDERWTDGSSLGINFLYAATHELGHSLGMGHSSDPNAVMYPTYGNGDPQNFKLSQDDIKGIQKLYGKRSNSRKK

- Protease Inhibition (% of WT) [1]: 201 % of WT
- Protease Inhibition (% of WT) [2]: 246 % of WT
- Protease Inhibition (% of WT) [3]: 119 % of WT
- Protease Inhibition (% of WT) [4]: 64 % of WT
- Protease Inhibition (% of WT) [5]: 100 % of WT
- Protease Inhibition (% of WT) [6]: 37 % of WT
- Protease Inhibition (% of WT) [7]: 41 % of WT
- Protease Inhibition (% of WT) [8]: 122 % of WT
- Protease Inhibition (% of WT) [9]: 124 % of WT
- Protease Inhibition (% of WT) [10]: 117 % of WT
- Protease Inhibition (% of WT) [11]: 170 % of WT
B1: Variant A2M, bait region SEQ ID NO 20 (other)
chain: SVSGKPQYMVLVPSLLHTETTEKGCVLLSYLNETVTVSASLESVRGNRSLFTDLEAENDVLHCVAFAVPKSSSNEEVMFLTVQVKGPTQEFKKRTTVMVKNEDSLVFVQTDKSIYKPGQTVKFRVVSMDENFHPLNELIPLVYIQDPKGNRIAQWQSFQLEGGLKQFSFPLSSEPFQGSYKVVVQKKSGGRTEHPFTVEEFVLPKFEVQVTVPKIITILEEEMNVSVCGLYTYGKPVPGHVTVSICRKYSDASDCHGEDSQAFCEKFSGQLNSHGCFYQQVKTKVFQLKRKEYEMKLHTEAQIQEEGTVVELTGRQSSEITRTITKLSFVKVDSHFRQGIPFFGQVRLVDGKGVPIPNKVIFIRGNEANYYSNATTDEHGLVQFSINTTNVMGTSLTVRVNYKDRSPCYGYQWVSEEHEEAHHTAYLVFSPSKSFVHLEPMSHELPCGHTQTVQAHYILNGGTLLGLKKLSFYYLIMAKGGIVRTGTHGLLVKQEDMKGHFSISIPVKSDIAPVARLLIYAVLPTGDVIGDSAKYDVENCLANKVDLSFSPSQSLPASHAHLRVTAAPQSVCALRAVDQSVLLMKPDAELSASSVYNLLPEKDLTGFPGPLNDQDDEDCINRHNVYINGITYTPVSSTNEKDMYSFLEDMGLKAFTNSKIRKPKMCPQLEHGPEFRGVTEGEGEGIPENFYGVSEDLVVQISELEGRGSVEEPHTKLRKYFPETWIWDLVVVNSAGVAEVGVTVPDTITEWKAGAFCLSEDAGLGISSTASLRAFQPFFVELTMPYSVIRGEAFTLKATVLNYLPKCIRVSVQLEASPAFLAVPVEKEQAPHCICANGRQTVSWAVTPKSLGNVNFTVSAEALESQELCGTEVPSVPEHGRKDTVIKPLLVEPEGLEKETTFNSLLCPSGGEVSEELSLKLPPNVVEESARASVSVLGDILGSAMQNTQNLLQMPYGCGEQNMVLFAPNIYVLDYLNETQQLTPEIKSKAIGYLNTGYQRQLNYKHYDGSYSTFGERYGRNQGNTWLTAFVLKTFAQARAYIFIDEAHITQALIWLSQRQKDNGCFRSSGSLLNNAIKGGVEDEVTLSAYITIALLEIPLTVTHPVVRNALFCLESAWKTAQEGDHGSHVYTKALLAYAFALAGNQDKRKEVLKSLNEEAVKKDNSVHWERPQKPKAPVGHFYEPQAPSAEVEMTSYVLLAYLTAQPAPTSEDLTSATNIVKWITKQQNAQGGFSSTQDTVVALHALSKYGAATFTRTGKAAQVTIQSSGTFSSKFQVDNNNRLLLQQVSLPELPGEYSMKVTGEGCVYLQTSLKYNILPEKEEFPFALGVQTLPQTCDEPKAHTSFQISLSVSYTGSRSASNMAIVDVKMVSGFIPLKPTVKMLERSNHVSRTEVSSNHVLIYLDKVSNQTLSLFFTVLQDVPVRDLKPAIVKVYDYYETDEFAIAEYNAPCSKDLGNADYKDDDDKGASHHHHHH

- Protease Inhibition (% of WT) [1]: 68 % of WT
- Protease Inhibition (% of WT) [2]: 217 % of WT
- Protease Inhibition (% of WT) [3]: 84 % of WT
- Protease Inhibition (% of WT) [4]: 39 % of WT
- Protease Inhibition (% of WT) [5]: 46 % of WT
- Protease Inhibition (% of WT) [6]: 66 % of WT
- Protease Inhibition (% of WT) [7]: 45 % of WT
- Protease Inhibition (% of WT) [8]: 26 % of WT
- Protease Inhibition (% of WT) [9]: 59 % of WT
- Protease Inhibition (% of WT) [10]: 58 % of WT
- Protease Inhibition (% of WT) [11]: 94 % of WT
B2: Variant A2M, bait region SEQ ID NO 21 (other)
chain: SVSGKPQYMVLVPSLLHTETTEKGCVLLSYLNETVTVSASLESVRGNRSLFTDLEAENDVLHCVAFAVPKSSSNEEVMFLTVQVKGPTQEFKKRTTVMVKNEDSLVFVQTDKSIYKPGQTVKFRVVSMDENFHPLNELIPLVYIQDPKGNRIAQWQSFQLEGGLKQFSFPLSSEPFQGSYKVVVQKKSGGRTEHPFTVEEFVLPKFEVQVTVPKIITILEEEMNVSVCGLYTYGKPVPGHVTVSICRKYSDASDCHGEDSQAFCEKFSGQLNSHGCFYQQVKTKVFQLKRKEYEMKLHTEAQIQEEGTVVELTGRQSSEITRTITKLSFVKVDSHFRQGIPFFGQVRLVDGKGVPIPNKVIFIRGNEANYYSNATTDEHGLVQFSINTTNVMGTSLTVRVNYKDRSPCYGYQWVSEEHEEAHHTAYLVFSPSKSFVHLEPMSHELPCGHTQTVQAHYILNGGTLLGLKKLSFYYLIMAKGGIVRTGTHGLLVKQEDMKGHFSISIPVKSDIAPVARLLIYAVLPTGDVIGDSAKYDVENCLANKVDLSFSPSQSLPASHAHLRVTAAPQSVCALRAVDQSVLLMKPDAELSASSVYNLLPEKDLTGFPGPLNDQDDEDCINRHNVYINGITYTPVSSTNEKDMYSFLEDMGLKAFTNSKIRKPKMCPQLEHGPTEGEARGSPRYLTAIPENFYGVSEDLVVQISELEGRGSPHTKLRKYFPETWIWDLVVVNSAGVAEVGVTVPDTITEWKAGAFCLSEDAGLGISSTASLRAFQPFFVELTMPYSVIRGEAFTLKATVLNYLPKCIRVSVQLEASPAFLAVPVEKEQAPHCICANGRQTVSWAVTPKSLGNVNFTVSAEALESQELCGTEVPSVPEHGRKDTVIKPLLVEPEGLEKETTFNSLLCPSGGEVSEELSLKLPPNVVEESARASVSVLGDILGSAMQNTQNLLQMPYGCGEQNMVLFAPNIYVLDYLNETQQLTPEIKSKAIGYLNTGYQRQLNYKHYDGSYSTFGERYGRNQGNTWLTAFVLKTFAQARAYIFIDEAHITQALIWLSQRQKDNGCFRSSGSLLNNAIKGGVEDEVTLSAYITIALLEIPLTVTHPVVRNALFCLESAWKTAQEGDHGSHVYTKALLAYAFALAGNQDKRKEVLKSLNEEAVKKDNSVHWERPQKPKAPVGHFYEPQAPSAEVEMTSYVLLAYLTAQPAPTSEDLTSATNIVKWITKQQNAQGGFSSTQDTVVALHALSKYGAATFTRTGKAAQVTIQSSGTFSSKFQVDNNNRLLLQQVSLPELPGEYSMKVTGEGCVYLQTSLKYNILPEKEEFPFALGVQTLPQTCDEPKAHTSFQISLSVSYTGSRSASNMAIVDVKMVSGFIPLKPTVKMLERSNHVSRTEVSSNHVLIYLDKVSNQTLSLFFTVLQDVPVRDLKPAIVKVYDYYETDEFAIAEYNAPCSKDLGNADYKDDDDKGASHHHHHH

Reference: patent US20230250154A1 (CYTONICS, published 2023)
